Assay results: the supplement of paper PMC9170038

tested on: MS2 coat protein; experiment: apparent KD of MS2 coat protein; higher = weaker reporter binding; settings: Eterna round: R107; input ligand: theophylline 2 mM
In short: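 Normalised binding curves from single clusters were fitted, and the median fit for each design is given as apparent KD. The clusters held designed RNA switches transcribed on-chip from Illumina sequencing clusters. These were titrated with SNAP-549-labelled MS2 coat protein (twofold steps from 0.7 or 1.5 nM to 3 µM, 0.8–1.5 h to 10–20 min per step) in 100 mM Tris-HCl pH 7.5, 80 mM KCl, 4 mM MgCl2, without or with constant ligand.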

Q: Which “apparent KD of MS2 coat protein” value does the source give for “GCGGUCGGAGUGCGGCGUGUUCCGCUCCGUCGAGGACCGGUACGGCCGCCACUCGACAUGAGGAUCACCCAUGUCCGACCGCGCG [#1 Exclusion - Tryptophan A Attempt #5 (HarryS)]” here?
A: 28.8 nM

Q: “ACGAUAGGACUUGAGGAUCACCCAGGUGAUACCAGCCUGGAAACAGGCCCUUGGCAGCACUAAUACUCCAAUAACCUAUCGAAUA [TheoAX 16 #MicroSwitchBubble #AlternativeMS2]” was tested. Which “apparent KD of MS2 coat protein” value did it give?
A: 417 nM

Q: “AUUCUUUACUGAAGGAGCGUCAUUCUUACAUGAGGAUCACCCAUGUUUAUUCUUUAUGAUUGACAGGUAGGUCGCAGAUUUUUUA [#11 Same State - Arginine B]” was tested. Which “apparent KD of MS2 coat protein” value did it give?
A: 19 nM

Q: How did the “apparent KD of MS2 coat protein” value turn out when “UCAUGCAGGUCGGCCGCCACUACACACAUGAGGAUCACCCAUGUAGUUACUGGGUGAAGUGGCAGUAGGACCGGGACCUGCACAU [Brourdmod16]” was run?
A: 452 nM

Q: For “GGUAUGUAUUCGGAAACGAAUGCAUACCAACGAGGACCGGUACGGCCGCCACUCGCCGUCCUCAAACAUGAGGAUCACCCAUGUA [Ex Tryptophan A 7]”, which “apparent KD of MS2 coat protein” value is on record?
A: 30.6 nM

Q: Which “apparent KD of MS2 coat protein” value does the source give for “AGUCCUCUGUACCCUGAUGCCCUCACUUUACGAGGACCGGUACGGCCGCCACUCGAAUCCCAACAUGAGGAUCACCCAUGUCGAC [theeternabot_exclusion_MS2_Trp_A_26]” here?
A: 47 nM

Q: Which “apparent KD of MS2 coat protein” value does the source give for “UCGGAGAAGUCGGCCGCCACUGAACUCUUGUUCUACAUGAGGAUCACCCAUGUUCCUUUGUUUAACAGGACCGGGACUUAUACGA [JR_SSTryptoB_Sub009]” here?
A: 346 nM

Q: For “GGAUCAGGAUCGGCCGCCACUGAUAGUGAUCCAACGACAUGAGGAUCACCCAUGUACAUUUUAAUCAGGACCGGGAUCAAGUUCC [Tryp B Ex t7]”, which “apparent KD of MS2 coat protein” value is on record?
A: 327 nM

same assay, conditions: Eterna round: R107; input ligand: tryptophan 2.4 mM

Q: Which “apparent KD of MS2 coat protein” value does the source give for “ACAUGAGGAUCACCCAUGUGGCGACUUGAUACCAGACCCGCACUAGUCCCUUGGCAGCAACUACGUGUGGGACACCCAUGUGAAG [aszkullin]” here?
A: 20.2 nM

Q: Which “apparent KD of MS2 coat protein” value does the source give for “UGUAUGUGAUCUGAUACCAGAGUGAAUAACCUGAGGAUCACCCUGGUAAGGCGAAAGCCACUCCCUUGGCAGCAGAUCGCAUACU” here?
A: 136 nM

Q: How did the “apparent KD of MS2 coat protein” value turn out when “UUGUUGUUUGGAAGGAGCGUGUAUGAUUAAGAACAUGAGGAUCACCCAUGUUGUAGGAUAGCACAGGUAGGUCGCCGGGUGGUGG [11.W]” was run?
A: 14.6 nM

Q: With “GGUGGCUGGAUUGAUACCAGCCACCACCGAUAGACCACAUGAGGAUCACCCAUGUUGGGUGGCCCUUGGCAGCAGUCCAGCUGCC [#1 Same State - Theophylline B Attempt #9 (HarryS)]” as the sequence, how does the “apparent KD of MS2 coat protein” value read?
A: 886 nM

Q: How did the “apparent KD of MS2 coat protein” value turn out when “UCGCACAUGAGGAUCACCCAUGUACUAGAUACCAGUGACGCGGUGCACCCUUGGCAGCUGGUGCUGAGUGAUGGUUCCCUCGGCA [Exclusion Theophylline A GF8]” was run?
A: 112 nM

Q: For “GCACUACAUGAGGAUCACCCAUGUGCAGAUACCAGAGGUGUAUGCCUCCCUUGGCAGCUGCGUCGCUCUGGCAGCUUGUGGGUUG [Same State Theophylline A GF18]”, which “apparent KD of MS2 coat protein” value is on record?
A: 81.5 nM

Q: “ACAUGAGGGAUGGAUACCAGCGACAUGAGGAUCACCCAUGUAUGAGGAUCACCCAUGUUAUGCCCUUGGCAGCCACAAACAUGAG [UUYMULLIN]” was tested. Which “apparent KD of MS2 coat protein” value did it give?
A: 16.9 nM

Q: “GCACCAGGUACGGAUACCAGACAUUGCCAAUUGGGUGAACAUGAGGAUCACCCAUGUUAAGUCCCUUGGCAGCCGUACCUGGUGC [ETB NP+V+V2 #6 Same Structure]” was tested. Which “apparent KD of MS2 coat protein” value did it give?
A: 11.5 nM

Q: “ACGUCCGGUUUACUCGUGGGCAUGGUCGAUACCAGUAUUUUAAUCUACCCUUGGCAGCGACAUGAGGAUCACCCAUGUGCGAAGA [XTheo A #21]” was tested. Which “apparent KD of MS2 coat protein” value did it give?
A: 22.8 nM

Q: For “AGUCUCAGUGGAAGGAGCGUCGCGACUGCUACAUGAGGAUCACCCAUGUCGCCUUGAGCGCGACAGGUAGGUCGCCACGGUAGGC [Erraraorle]”, which “apparent KD of MS2 coat protein” value is on record?
A: 18.2 nM

Q: Which “apparent KD of MS2 coat protein” value does the source give for “UUUUACGCAAGUAAUUCCCGGGAACCGGAUACCAGCUCCUCCAACAGCCCUUGGCAGCCGACCACAUGAGGAUCACCCAUGUUUC [theeternabot_exclusion_MS2_Theo_A_28]” here?
A: 12.7 nM

Q: “UAAUAAAUAAAUCCAAGGUGAAGGUCAGAUACCAGCCAGAUAACUGGCCCUUGGCAGCUGAAUAAGCUUGAGGAUCACCCAAGUA [TheoAS 26 #OpenEnded #MS2Late #AlternativeMS2]” was tested. Which “apparent KD of MS2 coat protein” value did it give?
A: 32.8 nM

Q: How did the “apparent KD of MS2 coat protein” value turn out when “AUAACAUGAGGAUCACCCAUGUAAGCAGAUACCAGCUAGGAAACUAGCCCUUGGCAGCUGCAAUCCUCAUGUAUUGCAGCUGCAA [(M1)-(M2)-(T1)-(T2)-(M)'-(T)'_Design1]” was run?
A: 15.3 nM

Q: With “AACAUGAGGAUCACCCAUGUAAAACCGGUACGAGGACCGGUACGGCCGCCACUCGAAACAUGAGGAUCACCCAUGUAAUAAUAUU [Same State Trypophan A GF 21]” as the sequence, how does the “apparent KD of MS2 coat protein” value read?
A: 91.3 nM

Q: With “AGAGUCAGACAAAAGUCUGGCUCAGCCGAAGGAGCGUCCGAAAGGACAGGUAGGUCGCGGUUACUUGAGGAUCACCCAAGUUCCU [ArgAS 26 #OpenEnded #AlternativeMS2]” as the sequence, how does the “apparent KD of MS2 coat protein” value read?
A: 144 nM

Q: Which “apparent KD of MS2 coat protein” value does the source give for “UGUAUGGACUGAAGGAGCGGAAAAUAACCAUGAGGAUCACCCAUGGAAUAGGCGAAAGCCAUCCAGGUAGGUCGCAGUCCAUACU” here?
A: 31.6 nM

Q: How did the “apparent KD of MS2 coat protein” value turn out when “GCGGUCGGAGUGCGGCGUGUUCCGCUCCGUCGAGGACCGGUACGGCCGCCACUCGACAUGAGGAUCACCCAUGUCCGACCGCGCG [#1 Exclusion - Tryptophan A Attempt #5 (HarryS)]” was run?
A: 6.86 nM

Q: How did the “apparent KD of MS2 coat protein” value turn out when “ACAUGAGGAUCACCCAUGUUCCUCGCCGAUACCAGUGAAGAAGAACGCCCUUGGCAGCGGAAAGAAUAUUUUGGAGAUGAGAUAU [6.V]” was run?
A: 220 nM

Q: “CUCUGAGUGAGUAAUCACUCAGAGGCGGAUACCAGCGAGGUCCAUCGCCCUUGGCAGCCGAACAUGAGGAUCACCCAUGUCGGUA [#1 Same State - Theophylline A Attempt #24 (HarryS)]” was tested. Which “apparent KD of MS2 coat protein” value did it give?
A: 11.7 nM

Q: “ACGAUAGGACUUGAGGAUCACCCAGGUGAUACCAGCCUGGAAACAGGCCCUUGGCAGCACUAAUACUCCAAUAACCUAUCGAAUA [TheoAX 16 #MicroSwitchBubble #AlternativeMS2]” was tested. Which “apparent KD of MS2 coat protein” value did it give?
A: 332 nM

Q: With “AUUCUUUACUGAAGGAGCGUCAUUCUUACAUGAGGAUCACCCAUGUUUAUUCUUUAUGAUUGACAGGUAGGUCGCAGAUUUUUUA [#11 Same State - Arginine B]” as the sequence, how does the “apparent KD of MS2 coat protein” value read?
A: 17 nM

Q: Which “apparent KD of MS2 coat protein” value does the source give for “UCAUGCAGGUCGGCCGCCACUACACACAUGAGGAUCACCCAUGUAGUUACUGGGUGAAGUGGCAGUAGGACCGGGACCUGCACAU [Brourdmod16]” here?
A: 460 nM

Q: For “AGUGUUAUAACUGAUACCAGACUUUUGCUUAUACAUGAGGAUCACCCAUGUAAAAUGGUUGUCCCUUGGCAGCAGAAGUUACACA [JR_SSTheophyB_Sub008]”, which “apparent KD of MS2 coat protein” value is on record?
A: 58.6 nM

Q: For “UAAAACAUGAGGAUCACCCAUGUAAUUGAUACCAGAGUGAUGAUCCUCCCUUGGCAGCAAAUAACGCAUUGAUUACAAUGCGAAA [Mat - Same State Theophlline A - Mod of Eli - D27]”, which “apparent KD of MS2 coat protein” value is on record?
A: 35 nM

Q: Which “apparent KD of MS2 coat protein” value does the source give for “UAUAUAUAUAUUGAUACCAGCAGAGAAAACGUUUAUCCUAACAUGAGGAUCACCCAUGUAUGCCCUUGGCAGCGAUAUAUAUAUA [8.C]” here?
A: 21.7 nM

Q: For “CGACACCAGGCAAUCCAUCACCCGGCUGAUACCAGCUCUUUUGGAAGCCCUUGGCAGCAGAGAACAUGAGGAUCACCCAUGUCAG [theeternabot_exclusion_MS2_Theo_A_18]”, which “apparent KD of MS2 coat protein” value is on record?
A: 17 nM
